± gives the standard deviation.
Test: protein stability index of a GFP-peptide fusion (GPS, HEK-293T) (PSI 1-6); higher = more stable
Settings: c terminus: a fixed tail appended
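Note: 24-mer peptide tiles fused after GFP, lentivirally expressed, FACS-sorted into six equal bins by GFP/DsRed ratio, decoded by Illumina sequencing, PSI is the read-weighted mean bin number.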

| Sequence | protein stability index (treatment: DMSO) | protein stability index (treatment: MLN4924 1 uM, 8 h) |
| --- | --- | --- |
| YEKTPFDQLAFIEELFSLMVVNRL [EID1] | 2.68 ± 0.36 | 3.01 ± 0.43 |
| SAKLAPHYFHSISYKIEEISPSTL [KCNK9] | 2.41 ± 0.23 | 2.31 ± 0.34 |
| AQDLGELLATAEQEQLSLSQRQAK [LRRC45] | 5.25 ± 0.3 | 5.34 ± 0.058 |
| SFEAPLTPLIQQRARDSPEPGAGL [PSD2] | 4.66 ± 0.22 | 4.68 ± 0.2 |
| STSRAHKLPSRRQPGLLHLQSCGD [FAM189A2] | 3.67 ± 0.33 | 3.85 ± 0.13 |
| MEACMDGHVEVARLLLDSGAQVNM [ANKRD17] | 2.98 ± 0.32 | 3.06 ± 0.28 |
| QEVLSLRRENSTLDVECHEKEKHV [SASS6] | 5.2 ± 0.38 | 5.52 ± 0.4 |
| ESLSSQLSNLQKESRACLERIQEL [LMNB1] | 4.28 ± 0.14 | 4.38 ± 0.13 |
| LMSDLRRKRTAHERAKELYSSGEF [INTS4] | 3.54 ± 0.19 | 3.65 ± 0.1 |
| SNLLSRFTRNEFNLESKSTIGVEF [RAB11A] | 2.36 ± 0.31 | 2.72 ± 0.49 |
| CIGLQNLKLLDELPIAKVMKDYLK [ASB7] | 2.11 ± 0.28 | 2.27 ± 0.39 |
| PQDLAPQVSAHHRSQESLTSQESE [TBC1D10A] | 5.64 ± 0.15 | 5.56 ± 0.23 |
| MGSQHSAAARPSSCRRKQEDDRDG [TMEM106C] | 5.22 ± 0.15 | 5.4 ± 0.15 |
| TNDSLSLKPSWFDFGFAILGFAYA [MIA2] | 2.99 ± 0.53 | 2.49 ± 0.4 |
| PSQDERMRSPQNLHSQEDDDSSSE [NOL4L] | 5.62 ± 0.14 | 5.56 ± 0.21 |
| KMAAVSKASGRFGLLQGTSAETSG [SEPHS2] | 3.94 ± 0.15 | 3.88 ± 0.25 |
| DPKEDVFQQNHLFWLQNSSPSSDR [PHTF1] | 4.71 ± 0.18 | 4.49 ± 0.19 |
| AYFAGNQKQLEQTLQQFNIKLRPP [ARFIP2] | 2.63 ± 0.16 | 2.76 ± 0.29 |

| Sequence | protein stability index (treatment: DMSO) | protein stability index (treatment: MLN4924 1 uM, 8 h) |
| --- | --- | --- |
| APATTSSWEVVRNPLIASSFSLVK [C22orf31] | 2.91 ± 0.24 | 2.96 ± 0.1 |
| EPCGPGKSKLTYMCRVDLRGHMPE [DLC1] | 2.45 ± 0.29 | 2.11 ± 0.52 |
| RRDYLLLVMEGTDDGRLLEYDTVT [APMAP] | 2.26 ± 0.32 | 2.72 ± 0.13 |
| FWEEHKASLGREESRAPSPLLHKD [CBY2] | 4.61 ± 0.17 | 4.71 ± 0.21 |
| KDLTEYLKVRSHDPEEAIRHDVIV [PDS5B] | 3.26 ± 0.38 | 3.39 ± 0.14 |
| PPQGGCGGGGCDRYEPLPPSLPAA [KCNA3] | 4.53 ± 0.16 | 4.7 ± 0.23 |
| GEKMVAAKVKGEKLDKKLKKMEQN [ATF4] | 5 ± 0.27 | 4.76 ± 0.18 |
| NVNETDDWGRTALHYAAASDMDRN [ANKRD44] | 4.69 ± 0.15 | 4.77 ± 0.33 |
| ELDLSLSDLNEVPVKELAALPKAT [LRRC59] | 4.4 ± 0.25 | 4.49 ± 0.29 |
| ASASCSHWRECLFYPALWPQLRIC [FBXO33] | 2.44 ± 0.53 | 2.23 ± 0.39 |
| WMKHNVADSQITTIGNLVPQKTYS [PTPRD] | 3.29 ± 0.55 | 3.17 ± 0.29 |
| QHNLRDSLENTLTESEAHYSSQLS [KRT34] | 5.066 ± 0.033 | 4.99 ± 0.23 |
| DSGDVSNVIEKVKCILKTPGKINC [RHOBTB3] | 2.92 ± 0.21 | 2.87 ± 0.5 |
| PLLPLDMQGNQILVFPSSSSSSSS [ZBTB22] | 3.93 ± 0.24 | 4.1 ± 0.18 |
| MTTALQGQRLAVCVPAHPPPCAWA [CTBP1-DT] | 2.43 ± 0.2 | 2.56 ± 0.14 |
| RLLVGLALATLRVLRGLARPEHPP [TMEM175] | 2.02 ± 0.42 | 2.35 ± 0.43 |
| GRTGTLIACYVMKHYRFTHAEIIA [CDC14A] | 2.74 ± 0.89 | 3.11 ± 0.45 |
| NEVLSSDILPRWAIIGWLLTTCTS [INTS3] | 2.99 ± 0.82 | 2.91 ± 0.49 |

Source: the supplement of paper PMC10567573
